Molecular target: the molecule itself
Assay: SEC; analytical gel filtration; PmrA (50 µM) phosphorylated with pGEX-PmrBc T156R beads, 100 µl applied individually to Superdex 200 10/300 GL at 4°C in 1× TBS/1 mM MgCl2/1 mM DTT/10% glycerol, 0.5 ml/min, A280; monomer to dimer

Protein	Dimer: Monomer (ratio of peak heights, A280)	stoichiometry N
phosphorylated PmrA (G211) protein from S. enterica serovar Typhimurium (natural protein, phosphorylated (PmrA-P; phospho-Asp, residue number not given), PmrA, response regulator of the PmrA/PmrB two-component system, S. enterica serovar Typhimurium 14028s; glycine at position 211; In gel filtration a mixture of monomer and dimer; probably the whole 222-residue protein; also called PmrA-P; PmrA-H6) MKILIVEDDTLLLQGLILAAQTEGYACDGVSTARAAEHSLESGHYSLMVLDLGLPDEDGLHFLTRIRQKKYTLPVLILTARDTLNDRITGLDVGADDYLVKPFALEELHARIRALLRRHNNQGESELTVGNLTLNIGRHQAWRDGQELTLTPKEYALLSRLMLKAGSPVHREILYNDIYNWDNEPSTNTLEVHIHNLRDKVGKSRIRTVRGFGYMLVATEES	0.29	2
phosphorylated PmrA (E211) protein from S. enterica serovar Paratyphi B (natural protein, phosphorylated (PmrA-P; phospho-Asp, residue number not given), PmrA, response regulator of the PmrA/PmrB two-component system, natural allele of S. enterica serovar Paratyphi B (SPV) SARA46; differs from the S. typhimurium PmrA by a single amino acid, glutamate instead of glycine at position 211; also called PmrA-H6) MKILIVEDDTLLLQGLILAAQTEGYACDGVSTARAAEHSLESGHYSLMVLDLGLPDEDGLHFLTRIRQKKYTLPVLILTARDTLNDRITGLDVGADDYLVKPFALEELHARIRALLRRHNNQGESELTVGNLTLNIGRHQAWRDGQELTLTPKEYALLSRLMLKAGSPVHREILYNDIYNWDNEPSTNTLEVHIHNLRDKVGKSRIRTVREFGYMLVATEES	0.11	2

From PMC3531487, “An Allele of an Ancestral Transcription Factor Dependent on a Horizontally Acquired Gene Product” (PLoS Genetics, 2012)
